Experimental data reported in PMC4703215, “Structural Based Analyses of the JC Virus T-Antigen F258L Mutant Provides Evidence for DNA Dependent Conformational Changes in the C-Termini of Polyomavirus Origin Binding Domains”.

Experiments:
JCV T-ag OBD wt [1] = molecular target: T1, JCV T-ag OBD wt (JC virus (JCV), UniProt P03072 132-261); assay: ITC; ITC: 10 mM Na phosphate pH 7.0, 50 mM NaCl, 5 mM DTT; anisotropy: 20 mM Hepes pH 7.4, 50 mM NaCl, 0.01% NP40, 0.1 mM DTT, 15 nM probe; temperature not stated; details: protein: recombinant; tags: expressed from pGEX1λT (GST vector)
T1 sequence: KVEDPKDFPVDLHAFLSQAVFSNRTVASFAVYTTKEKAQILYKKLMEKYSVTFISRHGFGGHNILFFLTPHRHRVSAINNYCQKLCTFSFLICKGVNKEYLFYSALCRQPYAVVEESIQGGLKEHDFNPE

JCV T-ag OBD wt [2] = molecular target: T1, JCV T-ag OBD wt; assay: fluorescence anisotropy; ITC: 10 mM Na phosphate pH 7.0, 50 mM NaCl, 5 mM DTT; anisotropy: 20 mM Hepes pH 7.4, 50 mM NaCl, 0.01% NP40, 0.1 mM DTT, 15 nM probe; temperature not stated; details: protein: recombinant; tags: expressed from pGEX1λT (GST vector); label: 5' fluorescein (six-carbon linker) on one strand

B1: Site II duplex, four GAGGC pentanucleotides (dsDNA)
DNA 1: TACAGGAGGCCGAGGCCGCCTCCGCCTCCAAGC
DNA 2: GCTTGGAGGCGGAGGCGGCCTCGGCCTCCTGTA
- Kd (JCV T-ag OBD wt [1]): 172 nM

B2: TBS probe, single GAGGC (dsDNA)
DNA 1: CCGAGGCCATTCTGAGAATTGAGC
DNA 2: GCTCAATTCTCAGAATGGCCTCGG
- Kd (JCV T-ag OBD wt [2]): 93 ± 21 nM
